Experiments:
[1] = Aβ stable isotope labeling kinetics; format: in vivo, human; conditions: for FTR faster in cognitively normal amyloid positive group: in vivo
[2] = format: in vivo, human; conditions: 0.143 - 0.091

| Substance | FTR faster in cognitively normal amyloid positive group [1] | FTR (fractional turnover rate, irreversible loss) ([1]; compartmental model, CDR-SB = 0 (n=44), mean ± SD) | deposition rate constant into amyloid plaques [2] |
| --- | --- | --- | --- |
| Aβ38: endogenous soluble amyloid-beta isoform ending at residue 38, measured in human CSF | 22% |  |  |
| Aβ40: endogenous soluble amyloid-beta isoform ending at residue 40, measured in human CSF | 17% |  |  |
| Aβ42: endogenous soluble amyloid-beta isoform ending at residue 42, measured in human CSF | 57% | 0.104 ± 0.036 pools/h | 0.052 pool/h |

Reference: article PMC4546566 (Annals of neurology, 2015)
